# Laboratory results as given in publication PMC11227718.
# How the values were obtained:
# [1] = cycloheximide chase, immunoblot
# [2] = immunoblot of endogenous CCDC88C; settings: glycan lost; control: negative control siRNA
# [3] = immunoblot of endogenous CCDC88C, BT549; settings: glycan gained; control: empty vector
Substance,"degradation_or_half_life ([1]; glycan lost, control: negative control siRNA)",expression_or_secretion [2],expression_or_secretion [3],"degradation_or_half_life ([1]; glycan gained, control: empty vector)"
"Coiled-coil domain containing 88C (CCDC88C, Daple): si-GALNT6",decreases,decreases,,
"Coiled-coil domain containing 88C (CCDC88C, Daple): GALNT6 overexpression",,,increases,increases
